The values that follow come from article PMC3530481.

The assay addresses collagen VI tetramers from bovine cornea (bovine). As to the kind of experiment: ELISA; solid-phase binding: collagen VI tetramers coated (10 ug in 100 ul TBS, overnight 4 C), recombinant WARP dimer 0-1 uM in TBS, 1 h at room temperature, detected with sheep anti-WARP serum; Scatchard analysis, apparent Kd.

B1: recombinant human WARP (von Willebrand factor A-domain related protein), dimer (natural protein)
chain: ERGPPASAPRGDLMFLLDSSASVSHYEFSRVREFVGQLVAPLPLGTGALRASLVHVGSRPYTEFPFGQHSSGEAAQDAVRASAQRMGDTHTGLALVYAKEQLFAEASGARPGVPKVLVWVTDGGSSDPVGPPMQELKDLGVTVFIVSTGRGNFLELSAAASAPAEKHLHFVDVDDLHIIVQELRGSILDAMRPQQLHATEITSSGFRLAWPPLLTADSGYYVLELVPSAQPGAARRQQLPGNATDWIWAGLDPDTDYDVALVPESNVRLLRPQILRVRTRPGEAGPGASGPESGAGPAPTQLAALPAPEEAGPERIVISHARPRSLRVSWAPALGSAAALGYHVQFGPLRGGEAQRVEVPAGRNCTTLQGLAPGTAYLVTVTAAFRSGRESALSAKACTPDGPRPRPRPVPRAPTPGTASREP
With B1, the Kd turned out to be 22 nM.
